Assay results as given in the supplement of paper PMC10201428.
± gives the standard deviation of the averaged measurements.

Assays:
[1] = tested on: VchCAST RNA-guided transposition machinery (E. coli BL21(DE3) host, lacZ target); experiment: relative integration efficiency (T-RL orientation) vs wild-type transposon end (log2 (normalized fold change)); transposon end mutated: left end; higher = more efficient transposition
Summary of the method: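 A T7-driven effector plasmid encoding a CRISPR array, tniQ-cas8-cas7-cas6 and tnsA-tnsB-tnsC was co-transformed into E. coli BL21(DE3) together with a pUC57 mini-transposon donor holding barcoded pools of 1549 left-end or 1849 right-end variants. Transformants were plated with 0.1 mM IPTG at 37°C for 18 h. Illumina sequencing of PCR-amplified input plasmids and genomic integration junctions gave barcode abundances, and relative integration efficiency is their output/input fold change, normalised to reference barcodes and log-transformed.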

[2] = tested on: VchCAST RNA-guided transposition machinery (E. coli BL21(DE3) host, lacZ target); experiment: relative integration efficiency (T-LR orientation) vs wild-type transposon end (log2 (normalized fold change)); transposon end mutated: left end; higher = more efficient transposition
Description: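 Pooled, barcoded VchCAST (Tn6677) mini-transposon donor libraries; each variable transposon-end sequence sits in a fixed pDonor mini-transposon context (10-bp barcode and cargo not included). Left- or right-end libraries were co-transformed with pEffector (TniQ-Cascade, TnsABC, lacZ crRNA, T7, 0.1 mM IPTG) into E. coli BL21(DE3) and grown 18 h at 37 C. T-LR and T-RL junction amplicons were sequenced; output/input barcode fold change was normalised to the mean of four wild-type barcodes and log2-transformed. Two biological replicates; zero-count/undetected variants carry floor values (-10 / -15), censored here. Barcode uncoupling by PCR recombination adds noise.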

Sequence	relative integration efficiency (log2) [1]	relative integration efficiency (log2) [2]
AATGTTGTTGACAACCATAAAGTGATATTTAATAATTATTTATAATCAGCAACTTAACCACAAAACAACCATATATTGATATCTCACAAAACAACCATAAGTTGATATTTTTGTGAATCGAGTATTTCAGCAAAACTACTGCAGTAAGAAAG	-1.33 ± 0.66	-5.1 ± 0.69
AATGTTGTTGATACAACCATAAAATGATAATTACACCCATAAATTGATAATTATCACACCCATAAATTGATATTGCTGTGAATCGAGTATTTCAGCAAAACTACTGCAGTAAGAAAGTTACTTCGTGGTATGGGAGGATCAAGGAGCCAATA	-2.21 ± 0.71	3.47 ± 0.79
AATGTTGTTGATACAACCATAAAGTGATATTTACAACCATATATTGATATCTCTCACAACCATAAGTTGATATTTTTGTGAATCGAGTATTTCAGCAAAACTACTGCAGTAAGAAAGTTACTTCGTGGTATGGGAGGATCAAGGAGCCAATA	-3.51 ± 1	2.35 ± 0.84
AATGTTGTTGATCAACCATAAAGTGATATTTAATAATTATTTATAATCAGCAACTTAACCACAAAACAACCATATATTGATATCTCACAAAACAACCATAAGTTGATATTTTTGTGAATCGAGTATTTCAGCAAAACTACTGCAGTAAGAAA	-6.905 ± 0.028	< -10
AATGTTGTTGATGCAACACGCCCTGTCGCGGGCCGCCGGCGGGCGCCGACTACCAGGCCAACACCCCACCAACGCGCGGTCGCGAGACACCCCACCAACGCCTGGTCGCGGGGGTGTCCGATCTGATTTCAGCAAAACTACTGCAGTAAGAA	< -10	< -10
AATGTTGTTGATGCAACCAATTTCTGATATTTAATAATTATTTATAATCAGCAACTTAACCACAAAACAACCAATATATGATATCTCACAAAACAACCAATTCATGATATTTTTGTGAATCGAGTATTTCAGCAAAACTACTGCAGTAAGAA	-2.5 ± 1.1	-1.57 ± 0.77
AATGTTGTTGATGCAACCAGCCCTGTCGCGGGCCGCCGGCGGGCGCCGACTACCAGGCCAACACCCCACCAACGCGCGGTCGCGAGACACCCCACCAACGCCTGGTCGCGGGGGTGTCCGATCTGATTTCAGCAAAACTACTGCAGTAAGAA	< -10	-9 ± 0.31
AATGTTGTTGATGCAACCATAAAATGATAATTAATAATTATTTATAATCAGCAACTTAACCACAAAACAACCATAAAATGATAATTAACAAAAGTTGGTATTCAACTATAAAATGTGAATCGAGTATTTCAGCAAAACTACTGCAGTAAGAA	-2.57 ± 1.3	-1.23 ± 2.7
AATGTTGTTGATGCAACCATAAAATGATAATTAATAATTATTTATAATCAGCAACTTAACCACAAAACAACCATAAAATGATAATTAACAAAATAATTATCATTTTATGGTTGTGTGAATCGAGTATTTCAGCAAAACTACTGCAGTAAGAA	-3.63 ± 0.84	0.0912 ± 1.6
AATGTTGTTGATGCAACCATAAAATGATAATTAATAATTATTTATAATCAGCAACTTAACCACAAAACAACCATAAAATGATAATTATTTTGTCAACCATAAAATGATAATTATGTGAATCGAGTATTTCAGCAAAACTACTGCAGTAAGAA	-1.39 ± 0.9	-1.36 ± 1.1
AATGTTGTTGATGCAACCATAAAATGATAATTAATAATTATTTATAATCAGCAACTTAACCACAAAACAACCATAAAGTGATATTTAACAAAAGTTGGTATTCAACTATAAAATGTGAATCGAGTATTTCAGCAAAACTACTGCAGTAAGAA	-2.33 ± 0.95	-0.635 ± 1
AATGTTGTTGATGCAACCATAAAATGATAATTAATAATTATTTATAATCAGCAACTTAACCACAAAACAACCATAAGTTGATATTTTACAAAAGTTGGTATTCAACTATAAAATGTGAATCGAGTATTTCAGCAAAACTACTGCAGTAAGAA	-2.24 ± 0.86	-1.49 ± 1.9
AATGTTGTTGATGCAACCATAAAATGATAATTAATAATTATTTATAATCAGCAACTTAACCACAAAACAACCATATATTGATATCTCACAAAAGTTGGTATTCAACTATAAAATGTGAATCGAGTATTTCAGCAAAACTACTGCAGTAAGAA	-2.59 ± 1.1	-0.862 ± 0.91
AATGTTGTTGATGCAACCATAAAATGATAATTAATAATTATTTATAATCAGCAACTTAACCACAAAACACCCATAAATTGATAATTAACAAAAGTTGGTATTCAACTATAAAATGTGAATCGAGTATTTCAGCAAAACTACTGCAGTAAGAA	-2.02 ± 1.1	-0.121 ± 0.44
AATGTTGTTGATGCAACCATAAAATGATAATTAATAATTATTTATAATCAGCAACTTAACCACAAAACACCCATAAATTGATATTGCACAAAAGTTGGTATTCAACTATAAAATGTGAATCGAGTATTTCAGCAAAACTACTGCAGTAAGAA	-3.1 ± 1.4	-1.48 ± 0.57
AATGTTGTTGATGCAACCATAAAATGATAATTAATAATTATTTATAATCAGCAACTTAACCACAAAATAATTATCATTTTATGGTTGACAAAATAATTATCATTTTATGGTTGTGTGAATCGAGTATTTCAGCAAAACTACTGCAGTAAGAA	-6.03 ± 2.2	-0.969 ± 0.98
AATGTTGTTGATGCAACCATAAAGTGAGCGGGCATAATTATTTATAATCAGCAACTTAACCACAAAACAACCATATATTGAGCGAGAACAAAACAACCATAAGTTGAGCGGGGTGTGAATCGAGTATTTCAGCAAAACTACTGCAGTAAGAA	-6.46 ± 1.3	-4.11 ± 0.54
AATGTTGTTGATGCAACCATAAAGTGATAATAATTATTTATAATCAGCAACTTAACCACAAAACAACCATATATTGATATCTCACAAAACAACCATAAGTTGATATTTTTGTGAATCGAGTATTTCAGCAAAACTACTGCAGTAAGAAAGTT	-7.71 ± 1.4	-6.51 ± 1.4
AATGTTGTTGATGCAACCATAAAGTGATAGGGCCGCCGGCGGGCGCCGACTACCAGGCCAACACCCCACCAACGCGCGGTCGCGAGACACCCCACCAACGCCTGGTCGCGGGGGTGTCCGATCTGATTTCAGCAAAACTACTGCAGTAAGAA	-7.44 ± 1.6	-5.19 ± 2.5
AATGTTGTTGATGCAACCATAAAGTGATATATAATTATTTATAATCAGCAACTTAACCACAAAACAACCATATATTGATATCTCACAAAACAACCATAAGTTGATATTTTTGTGAATCGAGTATTTCAGCAAAACTACTGCAGTAAGAAAGT	-7.3 ± 1.5	-4.68 ± 0.68
AATGTTGTTGATGCAACCATAAAGTGATATGGCCGCCGGCGGGCGCCGACTACCAGGCCAACACCCCACCAACGCGCGGTCGCGAGACACCCCACCAACGCCTGGTCGCGGGGGTGTCCGATCTGATTTCAGCAAAACTACTGCAGTAAGAA	-7.18 ± 0.63	-6.67 ± 3.5
AATGTTGTTGATGCAACCATAAAGTGATATTGCCGCCGGCGGGCGCCGACTACCAGGCCAACACCCCACCAACGCGCGGTCGCGAGACACCCCACCAACGCCTGGTCGCGGGGGTGTCCGATCTGATTTCAGCAAAACTACTGCAGTAAGAA	-7.14 ± 1.3	-5.87 ± 0.86
AATGTTGTTGATGCAACCATAAAGTGATATTTAAAATGTGAGCGAGTAACAACCCTTAACCACAAAACAACCATATATTGATATCTCACAAAACAACCATAAGTTGATATTTTTGTGAATCGAGTATTTCAGCAAAACTACTGCAGTAAGAA	-2.19 ± 0.48	-0.988 ± 0.33
AATGTTGTTGATGCAACCATAAAGTGATATTTAAAGTACAGCGCGACTGAACTCATCATTAAAACGACAACCATATATTGATATCTCACAAAACAACCATAAGTTGATATTTTTGTGAATCGAGTATTTCAGCAAAACTACTGCAGTAAGAA	-2.4 ± 1.2	-0.487 ± 1.5
AATGTTGTTGATGCAACCATAAAGTGATATTTAAATTGTGAGCGGATAACAATTCTTAACCACAAAACAACCATATATTGATATCTCACAAAACAACCATAAGTTGATATTTTTGTGAATCGAGTATTTCAGCAAAACTACTGCAGTAAGAA	-3.08 ± 0.73	-3.23 ± 0.83
AATGTTGTTGATGCAACCATAAAGTGATATTTAACAACCATAAAGTGATATTTAACTTAACCACAAACAACCATATATTGATATCTCACAAAACAACCATAAGTTGATATTTTTGTGAATCGAGTATTTCAGCAAAACTACTGCAGTAAGAA	-2.56 ± 0.5	1.37 ± 1.1
AATGTTGTTGATGCAACCATAAAGTGATATTTAACAACCATATATTGATATCTCACAAAACAACCATAAGTTGATATTTTTAATTATTTATAATCAGCAACTTAACCACAAAATGTGAATCGAGTATTTCAGCAAAACTACTGCAGTAAGAA	-1.58 ± 0.69	-0.212 ± 1.1
AATGTTGTTGATGCAACCATAAAGTGATATTTAACAACCATATATTGATATCTCACAAAACAACCATAAGTTGATATTTTTGTGAATCGAGTATTTCAGCAAAACTACTGCAGTAAGAAAGTTACTTCGTGGTATGGGAGGATCAAGGAGCC	-2.74 ± 1	-0.0605 ± 1
AATGTTGTTGATGCAACCATAAAGTGATATTTAACAACCATATATTGATATCTCTAATTATTTATAATCAGCAACTTAACCACAAAAACAAAACAACCATAAGTTGATATTTTTGTGAATCGAGTATTTCAGCAAAACTACTGCAGTAAGAA	-2.13 ± 0.82	-0.167 ± 0.77
AATGTTGTTGATGCAACCATAAAGTGATATTTAACAAGACTAACATTATTAGTAACTGAGAACTATGCAACCATATATTGATATCTCACAAAACAACCATAAGTTGATATTTTTGTGAATCGAGTATTTCAGCAAAACTACTGCAGTAAGAA	-2.4 ± 0.87	-2.85 ± 0.45
